US20250026851A1 (AKAMIS BIO, published 2025)

What was measured:
[1] = target: Human FAP (fibroblast activation protein) on cells (human, UniProt Q12884 1-760); test: cell-based or functional assay
[2] = target: T1, human FAP/seprase protein (Sino Biological Inc, 10464-H07H-10) (human, UniProt Q12884 26-760); test: ELISA on plate-coated human FAP/seprase (100 ng/well), anti-His detection, A450
T1 construct: also called recombinant FAP protein; FAP protein

[3] = target: T2, human EpCAM/TROP-1 protein (Sino Biological Inc, #10694-H02H-50) (human, UniProt P16422 24-265); test: ELISA on plate-coated human EpCAM/TROP-1 (50 ng/well), anti-His detection, A450
T2 construct: also called recombinant EpCAM protein; recombinant EpCAM
T2 sequence (looked up): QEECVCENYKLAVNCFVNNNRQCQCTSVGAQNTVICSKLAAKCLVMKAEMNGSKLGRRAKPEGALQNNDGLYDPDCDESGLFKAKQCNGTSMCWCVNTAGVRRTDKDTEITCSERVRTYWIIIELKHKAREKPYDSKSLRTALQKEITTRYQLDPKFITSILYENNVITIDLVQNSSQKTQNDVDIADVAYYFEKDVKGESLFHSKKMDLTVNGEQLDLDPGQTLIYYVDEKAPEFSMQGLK

Human EpCAM on cells = target: T3, Human EpCAM on cells (human, UniProt P16422 24-314); test: cell-based or functional assay
T3 sequence: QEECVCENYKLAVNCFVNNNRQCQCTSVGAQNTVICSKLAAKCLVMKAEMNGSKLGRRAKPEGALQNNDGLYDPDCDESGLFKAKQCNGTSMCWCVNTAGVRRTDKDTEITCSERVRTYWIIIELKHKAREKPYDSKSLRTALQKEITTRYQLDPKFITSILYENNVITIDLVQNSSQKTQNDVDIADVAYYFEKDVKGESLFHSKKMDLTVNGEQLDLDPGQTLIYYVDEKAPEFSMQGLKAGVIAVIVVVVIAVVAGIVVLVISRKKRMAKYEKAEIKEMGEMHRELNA

B1: FAP bispecific T-cell activator (anti-FAP scFv x anti-CD3 scFv, with N-terminal signal sequence and C-terminal deca-His affinity tag) (bispecific antibody)
chain: DIVMTQSPDSLAVSLGERATINCKSSQSLLYSRNQKNYLAWYQQKPGQPPKLLIFWASTRESGVPDRFSGSGFGTDFTLTISSLQAEDVAVYYCQQYFSYPLTFGQGTKVEIKGGGGSGGGGSGGGGSQVQLVQSGAEVKKPGASVKVSCKTSRYTFTEYTIHWVRQAPGQRLEWIGGINPNNGIPNYNQKFKGRVTITVDTSASTAYMELSSLRSEDTAVYYCARRRIAYGYDEGHAMDYWGQGTLVTVSSGGGGSDVQLVQSGAEVKKPGASVKVSCKASGYTFTRYTMHWVRQAPGQGLEWIGYINPSRGYTNYADSVKGRFTITTDKSTSTAYMELSSLRSEDTATYYCARYYDDHYCLDYWGQGTTVTVSSGEGTSTGSGGSGGSGGADDIVLTQSPATLSLSPGERATLSCRASQSVSYMNWYQQKPGKAPKRWIYDTSKVASGVPARFSGSGSGTDYSLTINSLEAEDAATYYCQQWSSNPLTFGGGTKVEIKHHHHHHHHHH
Question: With B1 as the binder, how does the “EC50 of T cell-mediated lysis of NHDF cells (LDH assay, 24 h, 8,000 NHDF with 40,000 T-cells)” value [1] read?
Answer: 3.2 ng/mL

Question: What about the “EC50 of fibroblast (NHDF) lysis by LDH release after 24 h co-culture with PBMC T-cells” value [1] of the same binder?
Answer: ~2.5 ng/mL

B2: Control (Anti-FHA) bispecific T-cell activator (anti-FHA scFv x anti-CD3 scFv, with N-terminal signal sequence and C-terminal deca-His affinity tag) (bispecific antibody)
chain: ELDIVMTQAPASLAVSLGQRATISCRASKSVSSSGYNYLHWYQQKPGQPPKLLIYLASNLESGVPARFSGSGSGTDFTLNIHPVEEEDAATYYCQHSREFPLTFGAGTKLEIKSSGGGGSGGGGGGSSRSSLEVQLQQSGPELVKPGASVKISCKTSGYTFTGYTMHWVRQSHGKSLEWIGGINPKNGGIIYNQKFQGKATLTVDKSSSTASMELRSLTSDDSAVYYCARRVYDDYPYYYAMDYWGQGTSVTVSSAKTTPPSVTSGGGGSDVQLVQSGAEVKKPGASVKVSCKASGYTFTRYTMHWVRQAPGQGLEWIGYINPSRGYTNYADSVKGRFTITTDKSTSTAYMELSSLRSEDTATYYCARYYDDHYCLDYWGQGTTVTVSSGEGTSTGSGGSGGSGGADDIVLTQSPATLSLSPGERATLSCRASQSVSYMNWYQQKPGKAPKRWIYDTSKVASGVPARFSGSGSGTDYSLTINSLEAEDAATYYCQQWSSNPLTFGGGTKVEIKHHHHHHHHHH
Question: Does B2 bind [2]?
Answer: no binding (tested: supernatant protein diluted 10-fold)

Question: Does B2 bind [3]?
Answer: no binding (tested: supernatant protein diluted 10-fold)

B3: EpCAM bispecific T-cell activator (anti-EpCAM scFv x anti-CD3 scFv, with N-terminal signal sequence and C-terminal deca-His affinity tag) (bispecific antibody)
chain: ELVMTQSPSSLTVTAGEKVTMSCKSSQSLLNSGNQKNYLTWYQQKPGQPPKLLIYWASTRESGVPDRFTGSGSGTDFTLTISSVQAEDLAVYYCQNDYSYPLTFGAGTKLEIKGGGGSGGGGSGGGGSEVQLLEQSGAELVRPGTSVKISCKASGYAFTNYWLGWVKQRPGHGLEWIGDIFPGSGNIHYNEKFKGKATLTADKSSSTAYMQLSSLTFEDSAVYFCARLRNWDEPMDYWGQGTTVTVSSGGGGSDVQLVQSGAEVKKPGASVKVSCKASGYTFTRYTMHWVRQAPGQGLEWIGYINPSRGYTNYADSVKGRFTITTDKSTSTAYMELSSLRSEDTATYYCARYYDDHYCLDYWGQGTTVTVSSGEGTSTGSGGSGGSGGADDIVLTQSPATLSLSPGERATLSCRASQSVSYMNWYQQKPGKAPKRWIYDTSKVASGVPARFSGSGSGTDYSLTINSLEAEDAATYYCQQWSSNPLTFGGGTKVEIKHHHHHHHHHH
Question: How did the “EC50 of T cell-mediated lysis of DLD cells (LDH assay, 24 h, 8,000 DLD with 40,000 T-cells)” value (Human EpCAM on cells) turn out when B3 was run?
Answer: 7.4 ng/mL
